Laboratory results as given in publication PMC5309861, “Mechanistic insight into the substrate specificity of 1,2-β-oligoglucan phosphorylase from Lachnoclostridium phytofermentans” (Scientific Reports, 2017).

Substrate: O=P(O)(O)O[C@H]1O[C@H](CO)[C@@H](O)[C@H](O)[C@H]1O
Assay: phosphate release (molybdate colorimetry), Michaelis-Menten fit
Type: biochemical, Lachnoclostridium phytofermentans
Details: synthetic reaction, donor, pH 7.0, 30 °C, acceptor not stated
From the text: phosphate release (molybdate colorimetry), Michaelis-Menten fit on LpSOGP

B1: LpSOGP (Lachnoclostridium phytofermentans ISDg) (protein)
chain: MILKTLSAPIILENSNSTFTFLPGGDNFEWIHESIMINAFQGNTLDGSTNNLYLRIYKDNSLAFYPLIGMNSKSTIKSGTSTLIFEGTAEDISYTVTFRLTPYGIWFWDISLSGNCNKADIIYSQDIGVGTKGSVNSNELYLAQYLGHSIFQGDYGYVICSRQNMAQGDLFPYLQQGSLGIRSIAYSTDGTQFFGLSYKKTNIPEALYGDLPSKNKQYELAHTALQTEAFSLSGTKQFSFYGICKTNHPEVIREIEYIQELEKAYAYHESGEILPVNVPTLQNIGAPYASSRWDAKQVEHYFPKRLLEEKEEEALLSFFTPEKSHVVLQDKELTTERPHGHILMTNFDVTKVPQGVVSSTNYMYGAFNCQFVVGNTTYNKLLSNHRGLLNIQKDSGQRIFIKIGDCYRQLTLPAAYEMNVAGSTWYYQLDEDVLIITSFAMYNRPEIVLKVQSLGHKKYDFIVTHQLTVGPNEYENEIKLTREGNILQLSPTDPVVTNHFYPELSFRMRIPEDCTLSDDSIFFHNNTTINPSLLSIEILQKSSFDIVMQGFDTGNVIPFLDQYDYKEQLEAYRIYYDQLVCNFKLSAPDKIPLSAEKLNAIIHWYAHDALIHFASPHGLEQSGGAAWGTRDVCQGPIEFFLTTGHFDLVRHILITLYSHQIEGGFEWPQWFMFDHYPIHQEDCHGDVVFWPLKAISDYIQATGDTSILNELVDYRTAKDALPTNQPETILIHIKRAVTTIKNRYLSGTALISYAGGDWDDTLQPANSELKENLVSAWTQALAEQTLELLCSAIKGIDHDFSKELSHMANDIRTSFYQYLIKDGVIAGFLYRESEEHMKYMLHPDDTESSIHYRLLPLTRSIIAQLADFKLATRNLEIIDEHLACPDGVRLMDHPASYSGGISKIFLRAEQAANVGREISLQYVHAHIRYIEALATMGLSKKAWDALMRINPILLTDYVPNALTRQSNVYFSSSEGCFDDRYEYAKNFDKLRTGDINVKGGWRLYSSGPGIYIRRIIADLLGIRFGHNVIHIDPVVTKELDGVTLQFTCFGKTVFFTYHVDDTMDKHICVKSNNNILPGDNLNNIYRDGGIQIAKDVFLSAAMSDNNFHIYVKN
notes: full length with C-terminal His6 tag (pET28a, kept); E. coli BL21(DE3); theoretical mass 169640 Da as printed; monomer; structure residues 1-1113
Question: With B1 as the protein, how does the Km read?
Answer: Its Km is 2.6 ± 0.3 mM.

Question: And the kcat?
Answer: The kcat was 28 ± 1 s⁻¹.

Question: And the kcat/Km?
Answer: Its kcat/Km is 11000 ± 1000 M⁻¹ s⁻¹.
